Data: patent US20240150466A1 (DYNAMICURE BIOTECHNOLOGY, published 2024)
Like-named read-outs stand apart in the source and are kept apart here.

T1: human IGFBP7 recombinant protein (UniProt Q16270 27-282, biotinylated with EZ-LINK NHS-PEG4 biotin in the BLI assays (sites not given))
T1 chain: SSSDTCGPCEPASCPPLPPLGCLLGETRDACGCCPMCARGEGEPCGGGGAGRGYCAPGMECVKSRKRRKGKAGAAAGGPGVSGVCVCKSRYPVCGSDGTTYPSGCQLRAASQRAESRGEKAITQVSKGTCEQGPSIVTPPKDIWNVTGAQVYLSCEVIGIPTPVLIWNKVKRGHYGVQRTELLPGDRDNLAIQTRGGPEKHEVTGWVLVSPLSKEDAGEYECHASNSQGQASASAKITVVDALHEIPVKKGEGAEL

T2: mouse IGFBP7 recombinant protein (mouse, UniProt Q61581 26-281, biotinylated with EZ-LINK NHS-PEG4 biotin in the BLI assays (sites not given))
T2 chain: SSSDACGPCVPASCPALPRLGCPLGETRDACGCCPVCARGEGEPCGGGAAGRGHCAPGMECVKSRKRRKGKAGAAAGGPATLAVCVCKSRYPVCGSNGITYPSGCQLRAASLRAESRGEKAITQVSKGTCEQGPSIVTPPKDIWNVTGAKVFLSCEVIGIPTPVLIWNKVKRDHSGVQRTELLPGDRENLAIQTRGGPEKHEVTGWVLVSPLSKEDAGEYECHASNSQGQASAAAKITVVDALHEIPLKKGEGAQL

T3: mouse IGFBP7 recombinant protein (mouse, UniProt Q61581 26-281, limits assumed, biotinylated with EZ-LINK NHS-PEG4 biotin in the BLI assays (sites not given))
T3 construct: Soluble protein in ELISA and BLI; also called mIGFBP7
T3 sequence (looked up): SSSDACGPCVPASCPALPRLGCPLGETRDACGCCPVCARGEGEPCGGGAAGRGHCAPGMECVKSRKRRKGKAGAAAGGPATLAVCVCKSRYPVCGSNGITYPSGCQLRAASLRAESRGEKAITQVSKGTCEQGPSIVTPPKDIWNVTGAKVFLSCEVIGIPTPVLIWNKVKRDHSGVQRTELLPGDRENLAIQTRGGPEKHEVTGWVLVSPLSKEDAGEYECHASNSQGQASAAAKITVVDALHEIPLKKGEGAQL

T4: cynomolgus IGFBP7 recombinant protein (cynomolgus)
T4 chain: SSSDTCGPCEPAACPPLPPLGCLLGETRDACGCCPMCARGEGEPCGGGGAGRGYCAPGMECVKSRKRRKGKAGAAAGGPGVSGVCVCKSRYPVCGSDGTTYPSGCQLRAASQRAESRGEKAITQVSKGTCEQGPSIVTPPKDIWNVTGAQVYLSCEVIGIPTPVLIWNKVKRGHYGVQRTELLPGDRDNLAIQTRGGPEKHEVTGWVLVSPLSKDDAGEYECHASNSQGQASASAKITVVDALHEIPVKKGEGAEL

T5: human IGFBP7 recombinant protein (human, UniProt Q16270 27-282, biotinylated with EZ-LINK NHS-PEG4 biotin in the BLI assays (sites not given))
T5 construct: Soluble protein used for ELISA coating and, biotinylated, on streptavidin biosensors (Octet); also called hIGFBP7; biotinylated IGFBP7 protein
T5 sequence: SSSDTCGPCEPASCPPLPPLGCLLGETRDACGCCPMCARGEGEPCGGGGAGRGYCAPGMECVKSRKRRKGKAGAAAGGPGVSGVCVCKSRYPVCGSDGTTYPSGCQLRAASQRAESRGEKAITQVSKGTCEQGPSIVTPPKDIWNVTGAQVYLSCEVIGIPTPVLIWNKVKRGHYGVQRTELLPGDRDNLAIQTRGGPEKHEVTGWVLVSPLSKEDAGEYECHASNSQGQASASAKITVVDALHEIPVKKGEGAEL

T6: mouse IGFBP7 displayed on cells (HEK293T or CHO-K1) (mouse, UniProt Q61581 26-281)
T6 construct: whole, on cells;domain: CD80 transmembrane domain; also called mIGFBP7; mIGFBP7-HEK cells; not shown: linker; CD80 transmembrane domain
T6 sequence (looked up): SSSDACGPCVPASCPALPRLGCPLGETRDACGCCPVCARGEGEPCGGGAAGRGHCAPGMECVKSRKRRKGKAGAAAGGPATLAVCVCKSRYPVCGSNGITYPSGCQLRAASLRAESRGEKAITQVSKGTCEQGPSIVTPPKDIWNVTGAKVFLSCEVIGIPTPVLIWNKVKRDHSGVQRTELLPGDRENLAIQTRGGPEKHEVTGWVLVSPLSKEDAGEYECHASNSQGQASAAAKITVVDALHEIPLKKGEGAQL

T7: human IGFBP7 displayed on HEK293T cells (human, UniProt Q16270 27-282)
T7 construct: domain: CD80 transmembrane domain; signal peptide stated as residues 1-26; also called hIGFBP7; hIGFBP7-HEK cells; not shown: linker; CD80 transmembrane domain
T7 sequence: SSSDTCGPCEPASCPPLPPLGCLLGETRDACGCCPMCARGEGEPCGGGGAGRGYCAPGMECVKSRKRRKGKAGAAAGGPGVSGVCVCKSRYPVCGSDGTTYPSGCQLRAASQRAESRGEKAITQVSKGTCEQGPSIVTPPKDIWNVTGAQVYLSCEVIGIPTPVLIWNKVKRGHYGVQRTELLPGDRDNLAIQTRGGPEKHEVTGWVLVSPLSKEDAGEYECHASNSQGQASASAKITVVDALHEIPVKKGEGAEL

T8: His-tagged human IGFBP7 recombinant protein (human, UniProt Q16270 27-282)
T8 construct: not shown: His tag
T8 sequence: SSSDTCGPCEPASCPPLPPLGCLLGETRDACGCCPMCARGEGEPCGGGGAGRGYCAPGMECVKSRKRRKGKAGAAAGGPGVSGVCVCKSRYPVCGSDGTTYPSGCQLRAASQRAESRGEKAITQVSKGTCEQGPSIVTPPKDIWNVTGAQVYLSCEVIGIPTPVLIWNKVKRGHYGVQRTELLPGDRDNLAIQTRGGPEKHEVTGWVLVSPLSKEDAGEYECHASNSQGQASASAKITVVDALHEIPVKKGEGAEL


Tests used:
[1] = molecular target: T1, human IGFBP7 recombinant protein; experiment: BLI
[2] = molecular target: T2, mouse IGFBP7 recombinant protein; experiment: BLI
[3] = molecular target: T1, human IGFBP7 recombinant protein; experiment: BLI
[4] = molecular target: T2, mouse IGFBP7 recombinant protein; experiment: BLI
[5] = molecular target: T1, human IGFBP7 recombinant protein; experiment: BLI
[6] = molecular target: T2, mouse IGFBP7 recombinant protein; experiment: BLI
[7] = molecular target: T3, mouse IGFBP7 recombinant protein; experiment: BLI (Octet QKe), biotinylated IGFBP7 on streptavidin biosensors (FIG. 10)
Description: (§1) The binding affinity of anti-IGFBP7 nanobody Fc-fusion constructs (e.g., VHH-Fc-fusion constructs) were determined with bio-layer interferometry (BLI) using Octet QKe (Fortebio). Human, mouse, and cynomolgus IGFBP7 were biotinylated using EZ-LINK NHS-PEG4 biotin (Thermo Fisher Scientific). Streptavidin biosensors (ForteBio) were used to load biotinylated IGFBP7 protein (300 seconds in 5 μg/mL). Baseline was stabilized for 60 seconds in 1× kinetics buffer (ForteBio) before anti-IGFBP7 Fc-fucion proteins (serial dilution) were allowed to associate for 300 seconds with captured hIGFBP7 or mIGFBP7. Then the sensors were dissociated in 1× kinetics buffer for 600 seconds. Data analysis was performed on ForteBio Data Analysis HT 11.1 software.

[8] = molecular target: T4, cynomolgus IGFBP7 recombinant protein; experiment: BLI
[9] = molecular target: T5, human IGFBP7 recombinant protein; experiment: BLI (Octet QKe), biotinylated IGFBP7 on streptavidin biosensors (FIG. 9)
Description: as §1

[10] = molecular target: T5, human IGFBP7 recombinant protein; experiment: ELISA
[11] = molecular target: T3, mouse IGFBP7 recombinant protein; experiment: ELISA
[12] = molecular target: T6, mouse IGFBP7 displayed on cells …; experiment: flow cytometry on mouse IGFBP7 displaying HEK293T cells, nanobody 10 ug/ml, APC anti-HIS detection
Description: (§2) Human IGFBP7 and mouse IGFBP7 displaying HEK293T cells were detached by incubation with TrypLE reagents (Thermos Fisher), which preserves the integrity of IGFBP7 on the cell surface. Then the cells were incubated with anti-IGFBP7 nanobodies at 10 μg/ml for 30 minutes in 4° C. After washing by FACS buffer, the cells were incubated with APC conjugated anti-HIS antibodies (Biolegend) for 30 minutes in 4° C. After washing by FACS buffer twice, the samples were acquired in NovoCyte Flow Cytometer and analyzed by NovoExpress software.

[13] = molecular target: T7, human IGFBP7 displayed on HEK293T cells; experiment: flow cytometry on human IGFBP7 displaying HEK293T cells, nanobody 10 ug/ml, APC anti-HIS detection
Description: as §2

[14] = molecular target: T8, His-tagged human IGFBP7 recombinant …; experiment: flow cytometry blockade assay: nanobody 50 ug/mL pre-incubated with His-tagged human IGFBP7 1 ug/mL, then human CD93 CHO cells (FIG. 14)
Description: Anti-IGFBP7 nanobodies and nanobody-Fc fusions (50 μg/mL) generated in previous examples was incubated with His-tagged human IGFBP7 recombinant protein (1 μg/mL) for 30 minutes in 4° C. Human CD93 expressing CHO cells (1×10⁵ per well) were treated the mixture for 30 minutes at 4° C. Then the cells were washed with FACS buffer and incubated with anti-IGFBP7 monoclonal rabbit antibody (Sino Biological Inc, Catalog #13100-R003) at 1 μg/mL for 30 minutes in 4° C. After incubation, the cells were washed with FACS buffer and incubated with PE-conjugated anti-rabbit IgG antibody ([…]) for 30 minutes in 4° C. After washing with FACS buffer twice, the samples were analyzed and data acquired in NovoCyte Flow.

Row | Binder | Kd [1] [nM] | Kd [2] [nM] | Kd [3] [nM] | Kd [4] [nM] | Kd [5] [nM] | Kd [6] [nM] | Kd [8] [nM] | binding result [13] | further results
1 | D4-mIgG2a nanobody Fc-fusion (Fc fusion, VHH fused with mIgG2a Fc fragment, expressed in Expi293 cells; also called monospecific D4-mIgG2a; not shown: mouse IgG2a Fc fragment (mIgG2a Fc)) VQLQESGGGLVQTGGSLRLSCAASGRSFTFSSYAMGWFRHAPGKEREFLTAITWSGDYTYYTDSVKGRSTISRDNAKNTVYLQLNNLKPEDTAVYYCAAKFSQVSAFFATVSEYEYWGQGTQVTVSS | 1.22 | 10.2 | 1.22 | 10.2 | 1.16 | 12.1 | 1.84 | – | binding result [7]: binds; binding result [9]: binds
2 | anti-IGFBP7 nanobody D04 (VHH, Llama nanobody expressed in E. coli as His6-tagged protein; also called D4; D4 VHH; not shown: His6 tag) VHH: VQLQESGGGLVQTGGSLRLSCAASGRSFTFSSYAMGWFRHAPGKEREFLTAITWSGDYTYYTDSVKGRSTISRDNAKNTVYLQLNNLKPEDTAVYYCAAKFSQVSAFFATVSEYEYWGQGTQVTVSS | – | – | – | – | – | – | – | binds | binding result [10]: binds; binding result [11]: binds; binding result [12]: binds
3 | bispecific anti-IGFBP7 nanobody Fc-fusion construct A1D4-mIgG2a (bispecific antibody) VQLQESGGGLVQAGGSLRLSCAASGSLFAIDKWGWYRQVAGNERELVAWRYSPVSINYGDSVKGRFTVSGDSSRKRVYLQMNSLKPDDTAVYRCAAVISGAWYWGQGTQVTVSSVQLQESGGGLVQTGGSLRLSCAASGRSFTFSSYAMGWFRHAPGKEREFLTAITWSGDYTYYTDSVKGRSTISRDNAKNTVYLQLNNLKPEDTAVYYCAAKFSQVSAFFATVSEYEYWGQGTQVTVSS | 0.902 | 1.07 | 0.902 | 1.07 | – | – | 0.939 | – | –
4 | anti-IGFBP7 nanobody F12 (VHH, Llama nanobody expressed in E. coli as His6-tagged protein; not shown: His6 tag) VHH: VQLQESGGGLVQPGGSLRLSCAASGFTFSINTYLWYRQPPGKQREFVAAITSGGSINYADSVKGRFTISRDNAKKTVYLQMNSLKPEDTAVYVCNIKAHPNPWGFDNDYWGQGTQVTVSS | – | – | – | – | – | – | – | binds | –
5 | A4-mIgG2a nanobody Fc-fusion (Fc fusion) VQLQESGGGLVQPGGSLRLSCAASGTFTINTYLWYRQPPGKQREFVAAITRGGSINYADSVKGRFTISRDNAKKTVYLQMNSLKPEDTAVYVCNIKAHPNPWGFDNDYWGQGTQVTVSS | – | – | – | – | 1.2 | 0.0078 | – | – | –
6 | anti-IGFBP7 nanobody A03 (VHH, Llama nanobody expressed in E. coli as His6-tagged protein; also called A3; not shown: His6 tag) VHH: VQLQESGGGLVQAGGSLRLSCAASGTFSINTYLWYRQPPGKQREFVAAITSGGSINYADSVKGRFTISRDNAKKTVYLQMNSLKPEDTAVYVCNIKAHPNPWGFDNDYWGQGTQVTVSS | – | – | – | – | – | – | – | – | percent blocking of the CD93-IGFBP7 interaction [14]: ≥ 50%
